Test: soluble on expression in E. coli; label from the status in PepcDB or PDB records

Row | Sequence | soluble on expression in E. coli
1 | MSLAQINVAILGAGRIAQSMAETLVKMAADDRYRDLVAPYAVAARDGERAAAFAAKYGFPVSYGSYEELVADPNVNLVYIATPHNFHAEQAILCMRAGKGVLVEKAFGANTQQAREILDVSDETGMLCTEAIWTRYMPSRGMIDDIIASGVIGEVQAIDANLCYPTTAKARITDPALAGGALLDVGVYPINFIDMIMHNAPIARVESSMQPYETGVDAHNSMTFYYQNGVMATAQSSILCHSDRMGAVWGTEGYLTCQNINNVEAIDMFDGSHAVTAHYDVPEQLTGYEYEVASTAQAMLDGRTECDEMPHSDTLRIMECMDSLRADWGLKYPFEAEGHHHHHH | soluble
2 | MGSDKIHHHHHHMADTTPDVETDKCDDLLESLRRGRPAAGQDPVKRSQIIDGARRVFIEKGFEAASMNDITREAGVSKGTIYVYFANKEELFEALIEEERGTIFKNMYDMLDRADDLRQTLVKFGKVLSMKITSARVIQAQRTVIGASDRIPDMGARFYERGPKRGHDKVVKFLNAAIERGLLKIDDVDLAAYQFTELCLAGLFRQCIFAYRTKAPSQEEIDHIVRSGVDMFLKNYGTEQLAEEESHQMIALEAKA | not soluble
3 | ITDRKVLERELATRNAFLTAVLQTSVSAIVALNAEGGIVYANDEARRLLVLQPHRGGLRMEAVLETLDGRPLPEADMPSALVRATGAPLHDLRYAIRRPDGQFGILSINAAPLPQAADDARIVISVTDIT | not soluble
4 | MAHHHHHHMAYGDDSKIVEGIVGERNIYKRREESTETNPFQSKHKKRLLFVLDVSASMYRFEGMDHRLSKLLESTVMVMEAFAGFEEKIDYAMVGHNGDSACIELVSFGHSPANQKARMEVCQRMVAHAQYCWSGDNTVEAMRQSIDLVTAEKGDAYLVFVISDANLPRYGIQPSELSAIMRSHKEVQMFCIFIATLGEQASNLQAEMPPGHGFECLDTQALPHILKQIFFSVNLL | not soluble
5 | MTELEEIGININSIENTEQIISQLMDNYSDDVLHLVFSYVKNRTTAEDLTQEIFIKCYEKLDQFNNKSSIKTWLYRIAINHCKDYLGSWHYRKLNFSEKIWNYLPSKSKHVEEEIIAKDVANSLMSAVMDLPVKYREVVFLHYYEELSLANISKITGVNSNTLKTRLKHARELLKTKMKKEV | not soluble
6 | MWESKFVKEGLTFDDVLLVPAKSDVLPREVSVKTVLSESLQLNIPLISAGMDTVTEADMAIAMARQGGLGIIHKNMSIEQQAEQVDKVKRSESGVISDPFFLTPEHQVYDAEHLMGKYRISGVPVVNNLDERKLVGIITNRDMRFIQDYSIKISDVMTKEQLITAPVGTTLSEAEKILQKYKIEKLPLVDNNGVLQGLITIKDIEKVIEFPNSAKDKQGRLLVGAAVGVTADAMTRIDALVKASVDAIVLDTAHGHSQGVIDKVKEVRAKYPSLNIIAGNVATAEATKALIEAGANVVKVGIGPGSICTTRVVAGVGVPQLTAVYDCATEARKHGIPVIADGGIKYSGDMVKALAAGAHVVMLGSMFAGVAESPGETEIYQGRQFKVYRGMGSVGAMEKGSKDRYFQEGNKKLVPEGIEGRVPYKGPLADTVHQLVGGLRAGMGYCGAQDLEFLRENAQFIRMSGAGLLESHPHHVQITKEAPNYSL | not soluble
7 | GMEVIESKWYKKDGASSASIDDVEKLLNTTLPKQYKSFLLWSNGGEGKLGDNYIYIWAIEDVIAYNHDYGIQKYLQKEYWAFGMDGDIGYILHLSDNSIYRVDLGDLDITSIKYIAPSFDDFLGKAIYLNFNKLQNVANNNLTT | soluble
8 | ARYLDVTSRRDPEHSHRTYYVTGQVFFASADRFTASFDLREKVETLAIDLREAHFWDITAVAALDKVVLKLRRAGISVDVVGMNRATATLVDRFGVHDKPDGIDSLMGH | not soluble
9 | MGSDKIHHHHHHMNNSASEQKWKWWPLLPLYPYGRRRTIFRELVPNQIWSFEQLQGIYYVAVPVRLLVIRVKNELMIINPLPPTSELLKEIDLLQKKIGPVKTIVLPTASGLEHKIGLPALARAFPNAKIWLCPGQWSFPFQLPFDWLGIPSNRTNILLADGFPHGDDCEWISLGPIDIGLARFQEISCFHKPTKSLLVTDALVGIEATPPELFNLDPTPLLFHSREKGSEELIDSPIARRKGWLRLVLFASYLKPEKLEIPKIKEILENSFKPKMRNKRSHFGIYPFAWQEGWDLSAKKLVGEKTPLIQIAPVIERLVFPRGKKAFISWLNKIESLKGISFLISAHYSGKVRFTTNEIRALKVKIDNSNWEKTQGDFKFLSWFDQKLLNFGIVPKNPLKKFSD | not soluble
10 | MAHHHHHHMGTLEAQTQGPGSMNIDAISIGSNPPEDVNVIIEVPVGGQPIKYEMDKKAGALIVDRFLYTPMTYPGNYGFVPHTLSEDGDPIDVLVCNTRPLIPGCVINVRPIGVLVMEDNSGKDEKIIAVPSPHLTRRYEKIHDYTDMPEITLKQIAHFFEHYKDLEPGKWVKIGDWGDEDYARKFIVEAIERAKGK | soluble
11 | MSLTTGAAVAFVDTLHDAAVRDLGWLLASPSMLTAVPGAPLARPWPDATGQAAVEAWLAALDAQPGPLHRALDGFRPTRLGRYAECLLEYFLTHGPSLRLVAANLPLRSNGRTLGEVDFLVDTPDGRRLHWEMAVKCYLCAPVRDGASLADFVGPNLVDRFDRKRSRLLDHQLRMGEHDGFARLGYGAPADAQMFIKGWLFHPYGAPVPPVSVEIAPDHPRGFWLTHGQWPAWAAAQRDGAAWSVLPRLAWLAPRRAVAGAGVEPEPLASALELPAVLATRQTPDMIAIHEKGGDGTWRETARGFVVPDDWPARAQAFAAQDHEGHHHHHH | soluble
12 | KCLVLDLDGTLWGGVVGEDGIEGIKLGPTGSGKPFYEFQKYIKSLFKKGVILAVNSKNNYDDAMEVIRKHPYMVLREEDFADFEINWQDKASNMRAIAKKLNIGIDSMVFMDDD | not soluble
13 | MFSGFSSFGGGNGFVNMPQTFEEFFRCYPIAMMNDRIRKDDANFGGKIFLPPSALSKLSMLNIRYPMLFKLTANETGRVTHGGVLEFIAEEGRVYLPQWMMETLGIQPGSLLQISSTDVPLGQFVKLEPQSVDFLDISDPKAVLENVLRNFSTLTVDDVIEISYNGKTFKIKILEVKPESSSKSICVIETDLVTDFAPPVGYVEPDYKALKAQQDKEKKNSFGKGQVLDPSVLGQGSMSTRIDYAGIANSSRNKLSKFVGQGQNISGKAPKAEPKQDIKDMKITFDGEPAKLDLPEGQLFFGFPMVLPKEDEESAAGSKSSEQNFQGQGISLRKSNKRKTKSDHDSSKSKAPKSPEVIEID | soluble
14 | MLEFHNVPLKTILRRAIMSLPTNFNDILRFFEKDYDTAKEDNALSARGQFLQLYPLNHLKKMTLDDYVIGKGTASFCACVEVKTRTWANMQGATALKFGIYYGKSKSDPTVRYRFTQKFGDDDSTNKEVFANVKDALLDLIQSGKELDFRAIDENPLSQMFKAKILSLYFPEHFINICSKDHLKEIAMEMGIKEQQFISKYQHLLFKKKLEHKITRNWSNPKYMSFLYAQFIRKDLSSAPAVIVKKPQKRNHPEVNFEEITDNRDLIGKKSEEYALNWEKNRLIGLGYSKLAEEIDDRRNRPTYGYDFLSFNAPGDERYIEVKSIGRDGKEGAFRFFLSGNELTVSNLSNHSKNYYFYLVQYGKDGEPCNLYVKHAQDLYTNSEMSPCAYVVRFDLEEPALEHHHHHH | soluble
15 | MSLFYANMKEFELIKLVERLFGDEDVITPAGKHDAAYVKIGNRLIVLTCDTVNEKSDFPPYMLPEEMGWMAIAVTLSDVAACGARPLYFLSSISLKSIEFFEDILLGIKRCADRFGVKVVGGDIDFSEITTIAGFAIGEARRHITRRGAKVGEGVFITDLPGKAQLCLEMLERGAKREELPYAEKLYTPVPRIEEGMRIARYASAMTDVSDSLAVSLHQISQSSNVKIVLDNIVLSHLSPAENALELFLYGGGDFELVYTAKSSDDGIRIGRVERGKGVFAEIDGKTFEVEFRGYSHFEGHHHHHH | soluble
16 | MLAERLVNDYDVEVLTTCVKNYVTGDNEYPEGEEILNGVLVRRFYSDPVEPDLHKSYVRQAAPAKKWRHFLYRCRLLKPLSYVKPIWHYKEQEEIKALNSQVFYSSSMYAFIRENKASYRAFIPLSFFPHTYYTALYAPEKTILIPTMHNNGSSFRSIITSVFSEVAYIGFNIEAEQKLVENIVGKPLAAHGIISVGIEKTKAADWEQTKVKYNLPEDYLLYVGRIDAIKLNNIVDYFLSYKKKYVGSRLKLVLVGGIFGKTVEHPDIIYTGFVDDAEKVAIQLNAKVIVNPSRYESLSLILLETMSEGKAMLVNGRCNVLREHCEKSNYAALYYMNRRDFMRKLHNLENSETLRQQMGEKGRHYVQENYNWEMIIGRMKNVIQMLS | not soluble
17 | MSLTNKWIGALGLLLSGQLMASELVIESWRADDKALWEQKIIPAFEAANPGIKVKFNPVPNVNYTPTLWENLKAGKAGDLITCRPFDDSLALFKAGHLAEITEMAGMENFPSFAQAPWQTDSGAQTFCVPMASVIHGFFYNKKIFNELGLSVPQTREQFFTVLDKVKADGRYIPLSMSGSESWVASELGYQNIGPNYWKGEDGRLALINGQEHLDDSQYVKVFEELARWRAYLGEDGELRDYGTSNELFTSGKAALYVAGSWEIAPFTDKVDFGVMRPPVAKQGDGCFFTDHTDIGMGMNPASKNPQAAMAFLQWLTTPEFAELYTNSLPGFFSLSNHFFDVTNPAAREMMEWRDQCDSTIRVATQILSRGQPKLGDELAEVSQAVLVGKMTPTAAAERLEQGLKRWYAPHQTRKAKEQECQCVEPISPTTRLNTLPVVDIAPVVASDPVPPTEATILSEEGGSHHHHHH | soluble
18 | MSSDKSIEKNTDTIASEVHEGDNHSNNLGSMEEEIKSTPSDQYEEIAIIPTEPLHSDKELNDKQQSLGHEAPTNVSREEPIGISGDEDTQITEQNVNEQRQETREPSSEIDLNEPLDVEKDVTTDVQAPNGLNIEKEYDAVKENEKVYADTKEVVSSPENREVTGKNSGGEKSSSSKFLDDESGTTTAANANDISISSEVTPERSSENDNNQIHITNEVAAGINLNENKEQKAAIEDGPVTAENLSSETARKVPPIPTQIINEKGDNSSENEVSAIPTTSSPPLPPRQNVATSTSPKLPPRGKQREQPPKTKNAVPPPLEEEMKSEKFRKNFEETKRNSYHHVPLTGSKTAQLESTAEINLIASRYRKTSHHLNKEGEETRESLQEGQSFLKSTFTSFLENLSEYNEVENVNEEDREMFKIDWSFWTQVVNDYATVASNEPENLEAHVTNGIPPQIRGIIWQLMANSKSREMEDIYETLLDTECLHEATIRRDLRRTKFVAEDKMESLYKVIKVYSVYDPDVGYTQGMGFIAAPLLINCENEAESFGLLVGLMKNYGLRELFLPGMPGLMLMLYQFDRLLEEHSPSLYNRLIREGISSTMYATQWFLTFFAYKFPLEFVLRIFDIVFVEGIEVLLKFAVNLMLKNEETLVKLRFDELLDFLKDELFNYYLMGNQDDASVVQMGLSNGNSFKGNDDGTFSYNVDLFVHDAMTGVYITPLTLRRYRGEYVEIHEKEQKKEDHYESLRIQNHQLQREAQKLEHDYSILNKENISAANELIQNRLNMEMLLDEKNDLINTITDIKSQIEEEIRKQNLPNPDASLPKADLREDLERTISRNNEVMRENGQLEERITELQAEIDELININKEQVSTASLLERDSKAKGRKGWTGFKKVFK | soluble
19 | MKMAKSEDERLAEEWAAALGEDPNAPDIDVDEILAAPLEELKNTAPPITDDERRKLDTIMDIPVTISMEVGRSKISIRNLLQLNQGSVVELDRIAGESLDVMVNGTLIAHGEVVVVNDKFGIRLTDVISQTERIKKLR | not soluble
20 | MRQRTIVCPLIQNDGCYLLCKMADNRGVFPGQWALSGGGVEPGERIEEALRREIREELGEQLILSDITPWTFRDDIRIKTYADGRQEEIYMIYLIFDCVSANRDICINDEFQDYAWVKPEELALYDLNVATRHTLALKGLL | not soluble
21 | MVMHIKQSTVRSMLIVARRGKKRLNLDPDALAVLTALINLLAQESVARAAQSAANTGSRHVTKEHLKRVIAQLMLDFAI | not soluble

— the DeepSol protein solubility set
